From patent US8148141 (HIPEP LABORATORIES, dated 2012)
Ends that are not written are not given here. carboxyfluorescein = carboxyfluorescein (fluorescent group); ethyldansyl = not defined here

B1: Lys(Rf3)-Leu-Lys-Lys-Leu-Leu-Lys-Leu-Leu-Lys-Lys-Leu-Leu-Lys-Leu-Cys-NH2 (peptide)
peptide: K(carboxyfluorescein)LKKLLKLLKKLLKLC-NH2
notes: also called peptide containing carboxyfluorescein
B2: Glu(Rf1)-Leu-Lys-Lys-Leu-Leu-Lys-Leu-Leu-Lys-Lys-Leu-Leu-Lys-Leu-Lys(Rf2)-Cys-NH2 (peptide)
peptide: E(ethyldansyl)LKKLLKLLKKLLKLK(dabsyl)C-NH2
modifications: reading uncertain; also: printed as Glu(Rf1)-Leu-Lys-Lys-Leu-Leu-Lys-Leu-Leu-Lys-Lys-Leu-Leu-Lys-Leu-Lys(Rf2)-Cys-NH2
notes: Chemically synthesized designed peptide; Immobilized on a glass substrate in the assay; also called alpha-helix peptide with ethyldansyl-dabsyl labels, C-terminal Cys anchor
B3: Cys-Glu(Rf1)-Leu-Lys-Lys-Leu-Leu-Lys-Leu-Leu-Lys-Lys-Leu-Leu-Lys-Leu-Lys(Rf2)-NH2 (peptide)
peptide: CE(ethyldansyl)LKKLLKLLKKLLKLK(dabsyl)-NH2
modifications: reading uncertain; also: printed as Cys-Glu(Rf1)-Leu-Lys-Lys-Leu-Leu-Lys-Leu-Leu-Lys-Lys-Leu-Leu-Lys-Leu-Lys(Rf2)-NH2
notes: Chemically synthesized designed peptide; Immobilized on a glass substrate in the assay; also called alpha-helix peptide with ethyldansyl-dabsyl labels, N-terminal Cys anchor

How the values were obtained:
calmodulin [1] = molecular target: T1, calmodulin (Homo sapiens (Human), UniProt P0DP23 2-149); assay: fluorescence of immobilized labeled peptide on glass chip, ex 490 nm / em 520 nm, calmodulin solution, 25 C, 5 min
calmodulin [2] = molecular target: T1, calmodulin; assay: fluorescence of immobilized labeled peptide on glass chip, ex 340 nm / em 480 nm, plate reader, 1.0 uM calmodulin, 25 C, 5 min

increase of the fluorescence intensity (fold) (calmodulin [1]) [times]	increase of the fluorescence intensity (fold) (calmodulin [2]) [times]	Binder
~10	–	B1
–	~5	B2
–	~5	B3
